This passage reports Kd and Relative binding results from US20070031331A1 (Genentech, published 2007).

As a reminder, the Kd is the constant that tells how readily two partners part at equilibrium. A low value points to higher affinity.

For assay [1], the target named is T1, human CD20 (human, UniProt P11836 1-297).
T1 construct: whole, on cells; also called CD20 antigen; Bp35
T1 sequence (looked up): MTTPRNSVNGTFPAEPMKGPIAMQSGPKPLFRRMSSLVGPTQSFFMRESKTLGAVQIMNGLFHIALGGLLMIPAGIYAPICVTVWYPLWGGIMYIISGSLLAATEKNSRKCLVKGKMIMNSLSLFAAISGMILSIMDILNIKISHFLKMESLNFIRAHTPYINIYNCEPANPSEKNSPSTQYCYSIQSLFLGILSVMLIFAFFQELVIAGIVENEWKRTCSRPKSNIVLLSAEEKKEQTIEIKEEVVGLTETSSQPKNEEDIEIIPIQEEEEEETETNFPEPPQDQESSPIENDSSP
In words: Scatchard analysis, cold antibody against 125I-2H7.v16 on WIL2-S cells, n=4.
Description: All dilutions were performed in binding assay buffer (DMEM media containing 1% bovine serum albumin, 25 mM HEPES pH 7.2, and 0.01% sodium azide). […] WIL2-S cells (60,000 cells in 0.025 mL) were then added. The plate was sealed and incubated at room temperature for 24 hours, then centrifuged for 15 min at 3,500 RPM. The supernatant was then aspirated and the cell pellet was washed and centrifuged. The supernatant was again aspirated, and the pellets were dissolved in 1N NaOH and transferred to tubes for gamma counting.

The target of assay [2] is T1, human CD20. In words: cell-based ELISA on WIL2-S cells; conc. 2H7.v16 / conc. variant.
Description: To measure relative binding affinities to the CD20 antigen, a cell-based ELISA assay was developed. […] The cells were washed with PBS containing 1% fetal bovine serum (FBS) (assay buffer) and seeded at 250-300,000 cell/well in 96-well round bottom plates (Nunc, Roskilde, Denmark). […] The plates were buried in ice and incubated for 45 min. To remove the unbound antibody, 0.1 mL assay buffer was added to the wells. Plates were centrifuged and supernatants were removed. Cells were washed two more times with 0.2 mL assay buffer. Antibody bound to the plates was detected by adding peroxidase-conjugated goat anti-human Fc antibody (Jackson ImmunoResearch, West Grove, Pa.) to the plates. After a 45-min incubation, cells were washed as described before. TMB substrate (3,3′,5,5′-tetramethyl benzidine; Kirkegaard & Perry Laboratories, Gaithersburg, Md.) was added to the plates. The reaction was stopped by adding 1 M phosphoric acid. Titration curves were fit with a four-parameter nonlinear regression curve-fitting program ([…] ™, Synergy software, Reading, Pa.). The absorbance at the midpoint of the titration curve (mid-OD) and its corresponding concentration of the standard were determined. Then the concentration of each variant at this mid-OD was determined, and the concentration of the standard was divided by that of each variant.

B1: 2H7.v73 (antibody, IgG1)
heavy: not shown
light: DIQMTQSPSSLSASVGDRVTITCRASSSVSYLHWYQQKPGKAPKPLIYAPSNLASGVPSRFSGSGSGTDFTLTISSLQPEDFATYYCQQWSFNPPTFGQGTKVEIKRTVAAPSVFIFPPSDEQLKSGTASVVCLLNNFYPREAKVQWKVDNALQSGNSQESVTEQDSKDSTYSLSSTLTLSKADYEKHKVYACEVTHQGLSSPVTKSFNRGEC
notes: IgG1; changes relative to 2H7.v16; also called 2H7 version 73
As for B1, in the assay with human CD20 [1], the affinity, expressed as Kd, was 1.22 nM.

B2: 2H7.v75 (antibody, IgG1)
heavy: EVQLVESGGGLVQPGGSLRLSCAASGYTFTSYNMHWVRQAPGKGLEWVGAIYPGNGDTSYNQKFKGRFTISVDKSKNTLYLQMNSLRAEDTAVYYCARVVYYSASYWYFDVWGQGTLVTVSSASTKGPSVFPLAPSSKSTSGGTAALGCLVKDYFPEPVTVSWNSGALTSGVHTFPAVLQSSGLYSLSSVVTVPSSSLGTQTYICNVNHKPSNTKVDKKVEPKSCDKTHTCPPCPAPELLGGPSVFLFPPKPKDTLMISRTPEVTCVVVDVSHEDPEVKFNWYVDGVEVHNAKTKPREEQYNATYRVVSVLTVLHQDWLNGKEYKCKVSNKALPAPIAATISKAKGQPREPQVYTLPPSREEMTKNQVSLTCLVKGFYPSDIAVEWESNGQPENNYKTTPPVLDSDGSFFLYSKLTVDKSRWQQGNVFSCSVMHEALHNHYTQKSLSLSPGK
light: DIQMTQSPSSLSASVGDRVTITCRASSSVSYLHWYQQKPGKAPKPLIYAPSNLASGVPSRFSGSGSGTDFTLTISSLQPEDFATYYCQQWSFNPPTFGQGTKVEIKRTVAAPSVFIFPPSDEQLKSGTASVVCLLNNFYPREAKVQWKVDNALQSGNSQESVTEQDSKDSTYSLSSTLTLSKADYEKHKVYACEVTHQGLSSPVTKSFNRGEC
notes: IgG1; changes relative to 2H7.v16; also called 2H7 version 75
As to B2, the affinity with human CD20 [1], expressed as Kd, was 1.09 nM.

B3: 2H7.v166 (antibody, human IgG1, kappa, V domains shown)
VH: EVQLVESGGGLVQPGGSLRLSCAASGYTFTSYNMHWVRQAPGKGLEWVGAIYPGNGDTSYNQKFKGRFTISVDKSKNTLYLQMNSLRAEDTAVYYCARVVYYGGDWYFDVWGQGTLVTVSS
VL: DIQMTQSPSSLSASVGDRVTITCRASSSVSYMHWYQQKPGKAPKPLIYAPSNLASGVPSRFSGSGSGTDFTLTISSLQPEDFATYYCQQWSFNPPTFGQGTKVEIKR
notes: IgG1; changes relative to 2H7.v16; Y100b is deleted (written as a change to nothing); also called 2H7 version 166
B3 came in with a Relative binding in the assay with human CD20 [2] of 0.99 ratio.
